Laboratory results taken from patent US20090181444A1, “MODIFIED CARBOHYDRATE PROCESSING ENZYME” (priority 2002, published 2009).
Residue numbers refer to the chain shown, from its start. Names may count otherwise. Structures can show the parent of a compound that is named as a salt.

B1: E432C: SSβG point mutant Glu-432→Cys (protein, listed as Sulfolobus solfataricus)
chain: MYSFPNSFRFGWSQAGFQSEMGTPGSEDPNTDWYKWVHDPENMAAGLVSGDLPENGPGYWGNYKTFHDNAQKMGLKIARLNVEWSRIFPNPLPRPQNFDESKQDVTEVEINENELKRLDEYANKDALNHYREIFKDLKSRGLYFILNMYHWPLPLWLHDPIRVRRGDFTGPSGWLSTRTVYEFARFSAYIAWKFDDLVDEYSTMNEPNVVGGLGYVGVKSGFPPGYLSFELSRRHMYNIIQAHARAYDGIKSVSKKPVGIIYANSSFQPLTDKDMEAVEMAENDNRWWFFDAIIRGEITRGNEKIVRDDLKGRLDWIGVNYYTRTVVKRTEKGYVSLGGYGHGCERNSVSLAGLPTSDFGWEFFPEGLYDVLTKYWNRYHLYMYVTENGIADDADYQRPYYLVSHVYQVHRAINSGADVRGYLHWSLADNYCWASGFSMRFGLLKVDYNTKRLYWRPSALVYREIATNGAITDEIEHLNSVPPVKPLRH
B2: M439C: SSβG point mutant Met-439→Cys (protein)
chain: B1 chain with C432E, M439C
B3: W433C: SSβG point mutant Trp-433→Cys (protein, listed as Sulfolobus solfataricus)
chain: B1 chain with C432E, W433C
B4: C344S: SsβG mutant C344S, side chain at position 439 —CH2CH2SCH3 (protein)
chain: B1 chain with C344S, C432E

Columns and labels:
[1] = Hydrolysis of 4-methylumbelliferyl-β-D-glucuronide, initial rates; type: biochemical; details: for kcat / Km: 4-MUGlcA, 80° C.
Protocol: (§1) Parameters were determined by the method of initial rates. Activity was measured in time course assays of the hydrolysis of 4-methylumbelliferyl-β-D-glycosides (β-D-gluco, β-D-galacto, β-D-fuco, β-D-manno, β-D-xylo, β-D-glucurono) at 5-15 concentrations (0.001-1.5 mM) incubated at 80° C. in 50 mM sodium phosphate buffer, pH 6.5. Reactions were terminated at 2, 5, 10, 15 min by the addition of 100 μl of ice cold 1M NazCO3, pH 10 and analyzed (Labsystems Fluoroscan Ascent plate reader, […]). KM and kcat were derived by fitting the initial rates to hyperbolic Michaelis-Menten curves using GraFit 4 (Erithacus Software Ltd, Staines, UK).
(§2) Determination of the Michaelis-Menten parameters for the WT and mutant enzymes was performed at pH 6.5 at 80° C. for a broad range of representative, fluorophore-containing 4-methylumbelliferyl glycoside substrates, which allowed activities to be determined with a high degree of sensitivity (Table). Under these optimized assay conditions, the glucoside (Glc), galactoside (Gal) and fucoside (Fuc) substrates were hydrolysed well by SSβG-WT, but the xyloside (Xyl) substrate was hydrolysed relatively poorly (approx. 3% of turnover as determined by kcat compared with β-D-glucoside). […] In all cases the absolute D-stereospecificity and β-stereoselectivity of SSβG was maintained and no activity was detected towards L- or α-glycoside substrates.

[2] = Hydrolysis of 4-methylumbelliferyl-β-D-xyloside, initial rates; type: biochemical; details: for Km / kcat: 4-MUXyl, 80° C., pH 6.5
Protocol: as §1, §2

[3] = Hydrolysis of 4-methylumbelliferyl-β-D-mannoside, initial rates; type: biochemical; details: for Km / kcat: 4-MUMan, 80° C., pH 6.5
Protocol: as §1, §2

[4] = Hydrolysis of 4-methylumbelliferyl-β-D-fucoside, initial rates; type: biochemical; details: for Km / kcat: 4-MUFuc, 80° C., pH 6.5
Protocol: as §1, §2

[5] = Parallel one-pot glycoside synthesis (transglycosylation to MeOH); type: biochemical; details: 8 h, 50° C., 1:9 MeOH:phosphate buffer pH 6.5
Protocol: Enzyme (WT, […] or E432C, 1 mg) was added to a mixed solution (1 mL) of para-nitrophenyl (pNP) β-D-manno-, galacto-, gluco- and xylo- pyranosides (0.03 mmol of each) in 1:9 MeOH:phosphate buffer (pH 6.5) and incubated at 50° C. for 45 min (WT), 4 h (WT), 8 h (W433C, E432C). After this time the solutions were extracted with EtOAc to remove para-nitrophenol and passed through short Sephadex and Celite:Graphite (1:1) columns to remove protein, pNP-glycoside and remaining para-nitrophenol. Solvent was removed and product mixtures were analysed by ^1H NMR and ESMS. Yields based on donor were calculated from integration of anomeric proton resonances in ^1H NMR (D2O, 500 MHz): α-Gal (δ 5.12, d, […]), α-Glc (δ 5.08, d, 3.8 Hz), α-Xyl (δ 5.04, d, J=3.4 Hz), α-Man (δ 5.03, d, J=1.8 Hz), β-Man (δ 4.75, s), β-Glc (δ 4.49, d, J=8.0 Hz), P-Gal (δ 4.45, d, 7.9 Hz), Me-β-Man (δ 4.44, s), β-Xyl (δ 4.42, d, J=7.8 Hz), Me-β-Glc (δ 4.23, d, J 8.1 Hz), Me-β-Xyl (δ 4.18, d, J=7.8 Hz), Me-β-Gal (δ 4.17, d, J=8.0 Hz).
Scheme 1: Parallel glycoside syntheses using SSβG-WT, -E432C and -W433C as catalysts. […] Such balanced libraries are not produced by SSβG-WT even under varying reaction times.

[6] = Substrate specificity compared across 4-methylumbelliferyl-β-D-glycosides; type: biochemical
Protocol: as §1, §2

[7] = Hydrolysis of 4-methylumbelliferyl-β-D-glucoside, initial rates; type: biochemical; details: 80° C., pH 6.5; for Km / kcat: 4-MUGlc
Protocol: as §1, §2

[8] = Hydrolysis of 4-methylumbelliferyl-β-D-galactoside, initial rates; type: biochemical; details: 80° C., pH 6.5; for Km / kcat: 4-MUGal
Protocol: as §1, §2

[9] = Kinetic assay with p-nitrophenyl β-D-galactopyranoside, absorbance at 405 nm; type: biochemical; details: pNPGal, 45° C., pH 6.5 phosphate buffer, averaged over 3 runs, except * 2 runs
Protocol: (§3) The kinetic activity of SsδG was assessed using ultra-violet/visible spectroscopy. Cleavage of the glycosidic bond of the nitrophenyl sugar analogue releases a chromophore (Scheme 18), either p-nitrophenol or o-nitrophenol.
(§4) The absorbance of these chromophores at 405 nm was continuously measured at regular time intervals, and the Beer-Lambert Law used to calculate the chromophore concentration at each of these time intervals.
(§5) In order to use this equation the extinction coefficient, ∈, of both p-nitrophenol and o-nitrophenol were calculated. Enzyme kinetic parameters were assessed using the initial rates method. The gradient of a plot of chromophore concentration against time gave the initial rate of reaction at a series of substrate concentrations (0.05-10 mM). Kinetic parameters were calculated by regression analysis of the kinetic data on the Michaelis-Menten Model (Fersht, A., Enzyme Structure and Mechanism, W.H. Freeman and Company, New York (1985)). The initial rate of reaction was measured. This model is valid when [substrate]>>[enzyme], which are initial rate conditions.
(§6) KM and νmax were calculated from non-linear Michaelis-Menten and linear Lineweaver-Burk plots. From these values, kcat and kcat/KM were calculated and compared.
(§7) KM=νmax/2, it is the concentration of substrate at which half the active sites are filled. Higher KM values correspond to weaker binding and lower KM values correspond to stronger binding kcat, the turnover number is the number of substrate molecules which are converted to product when the enzyme is saturated with substrate and ν (rate) is maximised. Given both of these considerations, binding and rate, kcat/KM is typically as a measure of the overall relative activity of the enzyme. To allow comparison of the activity of the enzymes, ln({kcat/KM}mutant/{kcat/KM}WT) was calculated for each enzyme-substrate combination, to give overall activity relative to WT.
Substrate solutions (concentration 10 mM in 50 mM pH 6.5 phosphate buffer) were prepared. Kinetic assays were conducted in a 96-well flat bottom microtitre plate. Eight substrate concentrations were chosen for the assay from the range 0.05 mM to 10 mM (prepared from 10 mM stock solution), based on previous experimental experience of the kinetics of each enzyme (default range 0.05 mM to 2.00 mM)*. The enzyme stock solution (˜1 mgmL^−1) was diluted between 16- and 80-fold depending on the kinetic parameters determined*. The enzyme solution (496 µL) was dispensed into a 1.5 mL sealed Eppendorf tube. Into eight further Eppendorf tubes a portion of each substrate solution (650 μL) was dispensed. The tubes were incubated in a Techni Dri Block at 45° C. Simultaneously a 96-well flat bottom microtitre plate was incubated at 45° C. in a plate reader. […] The plate containing the enzyme and substrate solutions was then incubated in the plate reader at 45° C. to allow equilibration. […] Release of p-nitrophenol/o-nitropbenol was measured by absorbance at […], with an automix of 3 s before the first read and Is between every subsequent read. The run time chosen was between 6 min and 10 min*, and readings were taken at intervals of between 6 s and 10 s*.
(§8) A graph of concentration of the released chromophore (either pNP or oNP) against time was drawn for each concentration using Microsoft Excel. […] These gradients were entered into Grafit, which calculated KM and νmax from the Michelis-Menten and Lineweaver-Burk plots. From these kcat and kcat/KM could be calculated. […]

[10] = Kinetic assay with o-nitrophenyl β-D-galactopyranoside-6-phosphate, absorbance at 405 nm; type: biochemical; details: oNPGalP6, 45° C., pH 6.5 phosphate buffer; averaged over 3 runs, except * 2 runs
Protocol: as §3, §4, §5, §6
as §7, with “Given both of these considerations, binding and rate, kcat/KM is typically as a measure of the overall relative activity of the enzyme.” left out
Substrate solutions (concentration 10 mM in 50 mM pH 6.5 phosphate buffer) were prepared. […] The enzyme stock solution (˜1 mgmL^−1) was diluted between 16- and 80-fold depending on the kinetic parameters determined*. […] Simultaneously a 96-well flat bottom microtitre plate was incubated at 45° C. in a plate reader. […] The plate containing the enzyme and substrate solutions was then incubated in the plate reader at 45° C. to allow equilibration. […] Release of p-nitrophenol/o-nitropbenol was measured by absorbance at […], with an automix of 3 s before the first read and Is between every subsequent read. The run time chosen was between 6 min and 10 min*, and readings were taken at intervals of between 6 s and 10 s*.
as §8

| melting point | Molecule | kcat ([1]; pH 6.5) | Km [2] | kcat [2] | Km [3] | kcat [3] | Km [4] | kcat [4] | Yield of Products, product 1 (β-glycoside of Glc) [5] | Yield of Products, product 2 (β-glycoside of Gal) [5] | Yield of Products, product 3 (β-glycoside of Man) [5] | Yield of Products, product 4 (β-glycoside of Xyl) [5] | Yield of Products, product 5 [5] | Yield of Products, product 6 [5] | Yield of Products, product 7 [5] | Yield of Products, product 8 [5] | Km [7] | kcat [7] | Km [8] | kcat [8] | further results |
| --- | --- | --- | --- | --- | --- | --- | --- | --- | --- | --- | --- | --- | --- | --- | --- | --- | --- | --- | --- | --- | --- |
| 44 to 46 °C | CS(=O)(=S)OCCC(=O)O (stereo not drawn) [Enzyme 16, 2-carboxyethyl methanethiosulfonate] | – | – | – | – | – | – | – | – | – | – | – | – | – | – | – | – | – | – | – | – |
| 181 to 183.1 °C | O=[N+]([O-])c1ccccc1O[C@@H]1O[C@H](COP(=O)(O)O)[C@H](O)[C@H](O)[C@H]1O (as salt: ammonium) [Enzyme 17, o-nitrophenyl β-D-galactopyranoside 6-phosphate] | – | – | – | – | – | – | – | – | – | – | – | – | – | – | – | – | – | – | – | – |
| – | B1 | NAD | 1260 ± 210 µM | 2.8 ± 0.3 s⁻¹ | 900 ± 260 µM | 2.8 ± 0.7 s⁻¹ | 340 ± 40 µM | 18 ± 1 s⁻¹ | 22% | 24% | 14% | 17% | 7% | 9% | 3% | 4% | 340 ± 70 µM | 5.1 ± 0.5 s⁻¹ | 470 ± 140 µM | 5.4 ± 0.8 s⁻¹ | activity towards GlcA ([1]; pH 6.5): no detectable activity; kcat (Man) increase relative to WT [3]: 2 fold; kcat values for Glc,Gal,Xyl,Man substrates [6]: 2.8 to 5.4 s⁻¹; Glc kcat/KM reduction relative to WT [7]: 200 fold; Gal kcat/KM reduction relative to WT [8]: 130 fold |
| – | B2 | 1.3 ± 0.4 s⁻¹ | 68 ± 7 µM | 9.3 ± 0.2 s⁻¹ | 42 ± 15 µM | 2.3 ± 0.4 s⁻¹ | 23 ± 5 µM | 91 ± 8 s⁻¹ | – | – | – | – | – | – | – | – | 68 ± 28 µM | 190 ± 40 s⁻¹ | 83 ± 16 µM | 94 ± 11 s⁻¹ | kcat/KM for GlcA higher than WT [1]: 1.5 fold; Km ([1]; pH 6.5, read-out: Km): 1400 ± 600 µM; kcat/KM for Xyl higher than WT [2]: 4.7 fold; absolute increase in Xyl activity ([2]; relative to WT): 5 fold; kcat/KM for Fuc lower than WT [4]: 1.8 fold; increase in Xyl over Fuc specificity ([6]; relative to WT): 10 fold |
| – | B3 | NAD | 590 ± 190 µM | 1.5 ± 0.3 s⁻¹ | 180 ± 20 µM | 0.92 ± 0.05 s⁻¹ | 410 ± 90 µM | 31 ± 3 s⁻¹ | 36% | 18% | 8% | 13% | 11% | 6% | 3% | 5% | 1610 ± 350 µM | 33 ± 5 s⁻¹ | 2200 ± 1200 µM | 14 ± 6 s⁻¹ | Km ([1]; pH 6.5): NAD^; kcat (Xyl) lowering relative to WT [2]: 2.9 fold; broadening of Gal:Man stereospecificity relative to WT [6]: 25 fold; specificity range of kcat/KM for Glc:Gal:Xyl:Man [6]: 8 fold; Glc kcat/KM reduction relative to WT [7]: 140 fold; Gal kcat/KM reduction relative to WT [8]: 230 fold |
| – | B4 | – | – | – | – | – | – | – | – | – | – | – | – | – | – | – | – | – | – | – | kcat [9]: 4.16 s⁻¹; Km ([9]; read-out: KM): 475 µM; Km [10]: 3590 µM; kcat [10]: 8.42 s⁻¹ |
